± gives the standard deviation.

We go through 72 sequences from the supplement of paper PMC10567573.

The nature of this data set: protein stability index of a GFP-peptide fusion (GPS, HEK-293T) (PSI 1-6); higher = more stable.
Where [1] appears, read: treatment: DMSO, c terminus: a fixed tail appended.
The mark [2] stands for this setting: treatment: MLN4924 1 uM, 8 h, c terminus: a fixed tail appended.
[3] abbreviates: treatment: DMSO, c terminus: native.
Setting [4] is: treatment: MLN4924 1 uM, 8 h, c terminus: native.
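Further: 24-mer peptide tiles fused after GFP, lentivirally expressed, FACS-sorted into six equal bins by GFP/DsRed ratio, decoded by Illumina sequencing, PSI is the read-weighted mean bin number.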

GRVVPESQCQMETKPLAIHPCGDK [ADAMTSL2]: the protein stability index is, setting by setting: under setting [1], 4.53 ± 0.17; under setting [2], 4.71 ± 0.46.
The like results for IEARRRALKRFVNLVARHPLFSED [SNX8] were, in that order, 2.37 ± 0.67 and 2.61 ± 0.43.
LVEHYKKAPIFTSEHGEKLYLVRA [NCK2]: the protein stability index runs as follows: under setting [1], 2.28 ± 0.21; under setting [2], 2.42 ± 0.24.
The like results for QIGCKLPDDYRCSYRIHNGQKLVV [FBXO3] were, in that order, 2.06 ± 0.26 and 2.18 ± 0.24.
The like results for LFVTVTAVNLSVSTLPSLREEEEQ [KCNG1] were, in that order, 2.13 ± 0.34 and 2.18 ± 0.45.
Take LWIKFFAAGELESMGFSARYNFTP [NETO1]: the protein stability index is, setting by setting: under setting [1], 2.63 ± 0.85; under setting [2], 2.58 ± 0.89.
For the sequence KAYGWCSELIRHRRVHARKEPSH [ZNF232], the protein stability index was determined as 2.75 ± 0.2 under setting [3] and 2.51 ± 0.44 under setting [4].
In turn, EREPVRGQCLDSTDQLEFTVEPRL [RTN2] showed a protein stability index under setting [1] of 4.78 ± 0.2 and a protein stability index under setting [2] of 4.71 ± 0.2.
The like results for SKYADLSDAANRNHEALRQAKQEM [PRPH] were, in that order, 4.77 ± 0.064 and 4.89 ± 0.14.
The like results for APQHPAASALRTRMTGGRPPLPPP [DYRK1B] were, in that order, 4.38 ± 0.15 and 4.41 ± 0.23.
In the case of CMYRHALPPGFVLKKDKKKEEKED [ZC3H15], the protein stability index by setting is: under setting [1], 4.58 ± 0.21; under setting [2], 4.67 ± 0.15.
The like results for VCRTEGTPHMLLDLSDLLQVDSLR [BRF1] were, in that order, 2.31 ± 0.23 and 2.29 ± 0.3.
Taken in the same sequence, the figures for LHAWQINWPARQRGTHAVVGVATA [SPSB4] were 2.39 ± 0.25 and 2.31 ± 0.21.
SHCDSPSPQEDGQIMFDVEMHTSR [BNIP3L]: the protein stability index came out at 4.79 ± 0.31 under setting [1] and 4.8 ± 0.38 under setting [2].
As for DIVDRGSTNLGVNQAGFTLHSAIY [ADD1], the protein stability index by setting is: under setting [1], 2.36 ± 0.16; under setting [2], 2.49 ± 0.45.
Regarding GRPPDPADWAVMDVVNYFRTVGFE [SAMD13], the protein stability index reads like this: under setting [1], 2.57 ± 0.25; under setting [2], 2.78 ± 0.3.
Take NGHDCWSLISLSNNTGKNLELKFV [TENT5D]: the protein stability index by setting is: under setting [1], 2.51 ± 0.49; under setting [2], 2.61 ± 1.
Taken in the same sequence, the figures for RPHVHKQTEKTTRVRTVLNEKQLH [ISL2] were 4.21 ± 0.098 and 4.39 ± 0.24.
Taken in the same sequence, the figures for TSNGWGVTDCKHTEDVGVVCSDKR [LOXL2] were 4.57 ± 0.092 and 4.46 ± 0.41.
The like results for VRKPAEAERYKLERLAEAEKSQLI [FLOT1] were, in that order, 4.46 ± 0.26 and 4.49 ± 0.14.
In the case of YSQKESGHSNWLGDPEEPLTGFSW [ATL3], the protein stability index runs as follows: under setting [1], 1.92 ± 0.44; under setting [2], 2.78 ± 0.1.
Turning to VPKDQRLQAIKAAIMLLPDENREV [DLC1], the protein stability index runs as follows: under setting [1], 3.82 ± 0.18; under setting [2], 3.85 ± 0.42.
Taken in the same sequence, the figures for SKTVTSTMLGVFREDPKTREEFLT [GCH1] were 4.12 ± 0.1 and 4.11 ± 0.24.
In the case of MCYGYGCGCGSFCRLGYGCGYEGC [KRTAP19-2], the protein stability index reads like this: under setting [1], 2.35 ± 0.23; under setting [2], 2.43 ± 0.54.
Taken in the same sequence, the figures for FDEKIVPILKRKLPGSDVSGRLMG [FBXO28] were 2.75 ± 0.48 and 3.48 ± 0.47.
For KIRLRCQKGIPPSLRGRAWQYLSG [TBC1D10A], the protein stability index is 2.21 ± 0.094 under setting [1] and 2.09 ± 0.23 under setting [2].
The like results for EERVALNTEIEKLGRSIVSSPQGK [PKD2L1] were, in that order, 5.06 ± 0.16 and 5.15 ± 0.32.
The like results for PGGLVGSADVVSPSGHSDAQTLAM [PPFIA4] were, in that order, 4.57 ± 0.22 and 4.43 ± 0.93.
Turning to GSCSTVGGVGYGDSKDCILEPLSL [ZNF277], the protein stability index reads like this: under setting [1], 3.59 ± 0.32; under setting [2], 3.5 ± 0.24.
Turning to FKGNKYWAVQGQNVLHGYPKDIYS [MMP1], the protein stability index by setting is: under setting [1], 2.3 ± 0.21; under setting [2], 2.46 ± 0.2.
As to LLCLFFGIPWEAGARQISYSIPEE [PCDHGA10], the protein stability index under setting [1] was 1.94 ± 0.035 and the protein stability index under setting [2] came out at 2.45 ± 0.41.
HVLALGLGIYIGKRLSTPSASTY [BNIP3L]: the protein stability index is, setting by setting: under setting [3], 3.43 ± 0.86; under setting [4], 3.2 ± 0.64.
On to SGPQPRLPPCLLPLSPPTAPDRAT [TRIB3], for which the protein stability index was 4.48 ± 0.27 under setting [1] and 4.61 ± 0.28 under setting [2].
With EKEAKDLTELVQRRITYLQNPKDC [FUT8], the protein stability index turned out to be 4.76 ± 0.17 under setting [1] and 4.9 ± 0.13 under setting [2].
The like results for AGLNKDKETEERTDGERVAEVAPE [SDE2] were, in that order, 5.46 ± 0.33 and 5.63 ± 0.16.
Taken in the same sequence, the figures for VVTMTTVGYGDMHPVTIGGKIVGS [KCNA3] were 2.33 ± 0.4 and 2.37 ± 0.45.
AREGRETLKCLSHHVADAYTSSQK [TOR1AIP2]: the protein stability index came out at 4.48 ± 0.35 under setting [1] and 4.44 ± 0.37 under setting [2].
Take DGKCAYRASYSDGKLKAPPKPCAG [MLH1]: the protein stability index came out at 4.11 ± 0.3 under setting [1] and 4.06 ± 0.056 under setting [2].
The like results for PLDAGEYCVPRGNRRRFRVRQPIL [BEX1] were, in that order, 3.47 ± 0.42 and 3.63 ± 0.25.
Taken in the same sequence, the figures for LEEKDRVLKKQDAFYKEQLARLEE [CHCHD3] were 5.04 ± 0.25 and 5.17 ± 0.24.
The like results for NIWVCYASYVVFRIIYMLLITIAT [SLC19A2] were, in that order, 3.41 ± 0.35 and 3.14 ± 0.88.
ATCRLCGEQVGRGPGFHAGTSALW [ZBED3]: the protein stability index turned out to be 2.2 ± 0.57 under setting [1] and 2.39 ± 0.12 under setting [2].
For the sequence QEAPLQDDSCLNNDIPHSIPLEQG [FAN1], the protein stability index came to 5.25 ± 0.34 under setting [1] and 5.27 ± 0.17 under setting [2].
With YIHFFHTVLKQIAPEYFEKNEPYL [DENND6A], the protein stability index under setting [1] was determined as 1.96 ± 0.5 and the protein stability index under setting [2] turned out to be 2.77 ± 0.53.
With TAGEMVFVYENAKEGARNIRTSER [BTBD10], the protein stability index reads like this: under setting [1], 3.94 ± 0.21; under setting [2], 3.98 ± 0.14.
In the case of EEAKGALLGTSGLKRRFSRLENRY [DAPK3], the protein stability index by setting is: under setting [1], 3.8 ± 0.29; under setting [2], 3.96 ± 0.51.
The like results for KAREKDGKGRTASPINSPARGTPS [FSD1] were, in that order, 4.92 ± 0.11 and 5.19 ± 0.27.
For the sequence YDPRFNSWIQLPPMQERRASFYAC [KLHL14], the protein stability index reads like this: under setting [1], 2.14 ± 0.27; under setting [2], 2.22 ± 0.17.
SIIILLELAILGGLVYYKFFRSH [VTI1B]: the protein stability index by setting is: under setting [3], 2.78 ± 0.27; under setting [4], 2.63 ± 0.45.
As to HLTVHKRIHTGERPYMCKECGKAF [ZNF8], the protein stability index under setting [1] came out at 2.73 ± 0.28 and the protein stability index under setting [2] was 3.27 ± 0.38.
With RTRPRKPIRCGEVLFAVGGWCSGD [KLHL20], the protein stability index by setting is: under setting [1], 2.39 ± 0.28; under setting [2], 2.17 ± 0.33.
Taken in the same sequence, the figures for VSIIDTELKVKDSQPIDLSACTVA [TRIP13] were 3.28 ± 0.45 and 3.33 ± 0.29.
SRLMRRHKRRRRKQKVSRIERSSS [DVL3]: the protein stability index is, setting by setting: under setting [1], 4.46 ± 0.27; under setting [2], 4.43 ± 0.09.
Taken in the same sequence, the figures for CAACKTPIRNRAFYMEEGVPYCER [PDLIM7] were 2.93 ± 0.3 and 3.38 ± 0.18.
In the case of VTLLVALKVRYRERITILRGNHES [PPP2CA], the protein stability index under setting [1] was 2.78 ± 0.5 and the protein stability index under setting [2] was determined as 2.67 ± 0.44.
Take FAWSQGHRTVKLVPWSQCLQNFLL [WSB1]: the protein stability index reads like this: under setting [1], 1.99 ± 0.83; under setting [2], 2.3 ± 0.031.
Consider DLNIQLLKDGYRLDEIPDDEDLDL [FAM219A], for which the protein stability index by setting is: under setting [1], 5.17 ± 0.16; under setting [2], 5.16 ± 0.079.
For the sequence EETVTQDCLQLIADSETPTIQKGS [TNFSF13B], the protein stability index reads like this: under setting [1], 5.53 ± 0.36; under setting [2], 5.42 ± 0.14.
The like results for MLKEEHQIILENQKNFGLYVQEKR [RAD54B] were, in that order, 2.99 ± 0.24 and 3.62 ± 0.29.
Taken in the same sequence, the figures for SRRDDLEALGHMFMYFLRGSLPWQ [CSNK1G1] were 3.48 ± 0.54 and 3.15 ± 0.86.
Take SEVSFEGAYGNLKRLYDKAAKMYH [SMG5]: the protein stability index under setting [1] came out at 2.44 ± 0.29 and the protein stability index under setting [2] is 2.23 ± 0.29.
The like results for EEEDQHMKLSLGGSEMGLSSHLQS [KLHL13] were, in that order, 4.95 ± 0.12 and 4.91 ± 0.14.
Taken in the same sequence, the figures for PTLAKFSPYLGQMINLRRLLLSHI [PRAME] were 2.33 ± 0.42 and 2.15 ± 0.11.
Consider PLLPPAMGTEPAPSAPEALHSLPG [TBX6], for which the protein stability index under setting [1] was 5.07 ± 0.074 and the protein stability index under setting [2] amounted to 5.06 ± 0.16.
On to VDLFKQLCEKEPLGNVLFSPICLS [SERPINB5], for which the protein stability index by setting is: under setting [1], 1.98 ± 0.18; under setting [2], 2.08 ± 0.41.
Taken in the same sequence, the figures for ASDGSDFTFLRPLSVQQPTALALE [PCDHGC5] were 3.82 ± 0.17 and 3.82 ± 0.32.
Taken in the same sequence, the figures for QICAQVSFFFPPVNLPISFFRKLL [NLN] were 2.76 ± 0.039 and 3.45 ± 0.17.
For the sequence NGINLFDTAEVYAAGKAEVVLGNI [KCNAB2], the protein stability index reads like this: under setting [1], 2.89 ± 0.3; under setting [2], 3 ± 0.3.
Taken in the same sequence, the figures for EVLGPLCLMLLMGTVHCQIVSTQI [PHTF1] were 3.27 ± 0.15 and 3.19 ± 0.2.
The like results for YDYPEEEQLSGAGYRVSAALEEAD [EID1] were, in that order, 5.38 ± 0.31 and 5.22 ± 0.32.
Taken in the same sequence, the figures for AGQVTALPVNSPMNKGDTEVMKCI [CHGA] were 4.12 ± 0.34 and 4.57 ± 0.22.
With SNGSMHNYCPQQTKITSAFKYINT [EDNRA], the protein stability index worked out at 2.36 ± 0.35 under setting [1] and 2.6 ± 0.26 under setting [2].
